B1: TPR t1 (parent)
chain: GACCAAUCUGCCCUCAGAGCUCGAGAACAUCUUCGGAUGCAGAGGAGGCAGGCUUCGGUGGCGCGAUAGCGCCAACGUCCUCAACCUCCAAUGCAUCCCACCACAUGAUGAUGCCUGAAGAGCCUUGGUUUUUUG

The series covers variants of B1. As to the kind of experiment: polymerase ribozyme fitness, log enrichment relative to wild type (log ratio); higher = more active; in vitro selection for triplet polymerase activity. The gist of the method:
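Each subunit of a heterodimeric triplet polymerase ribozyme was mutagenized into a library by PCR, transcribed, and subjected to one round of in vitro selection, run in triplicate. Libraries were annealed with a biotinylated primer, the partner subunit and triplets, incubated frozen at −7 °C, and extended constructs were gel-excised, captured on streptavidin beads and recovered by RT-PCR. Input and output libraries were sequenced on Illumina, keeping genotypes with ≥10 input reads and ≥1 read per output. Fitness is log base 2 of genotype enrichment divided by wild-type enrichment, from inverse-variance-weighted replicate averages.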
In the case of A29U C94A A111U, the “polymerase ribozyme fitness (log ratio)” value is -0.272. Next, C34A C80U: -4.3; U33G C56A C88U: -4.09; U32C G52A G61A U125A: -0.743. For A29U U78C the value was -1.79; for A29G U59G, -1.48. Next, C28U U32C G71A: -2.59.

As for C34A C62U, the “polymerase ribozyme fitness (log ratio)” value is -2.79. For the variant A29U C89U A119U, the “polymerase ribozyme fitness (log ratio)” value was -3.93.

Consider C28U G39A G45A G120A, for which the “polymerase ribozyme fitness (log ratio)” value was -2.28. For U32A A41U the value was -5.52; for U32G A41G C70U C89G C114U, -5.66; for U33A C102G U112A, -6.38. Next, C31U G47U U112C G120C: -4.82; A29G G120U: -0.745. For C34A C40U G48C C114U G120C the value was -3.6; for A29G G60A, -1.42; for A29G G60C, -1.31.

Turning to C31U A46C G47U C98A G120C, the “polymerase ribozyme fitness (log ratio)” value is -7.6.

A29U A43G G61U G113A C123A U126A U134C: the “polymerase ribozyme fitness (log ratio)” value is -3.47.

In the case of C28U G61A U112C U131A, the “polymerase ribozyme fitness (log ratio)” value turned out to be 0.223. For U33C A46G C64G C86A C115G the value was -5.34; for U33G G47U C72U G120A, -6.26; for U30C G48C C64U U81A U87A C124A, -4.9. Next, U32C C53A C101A G120A: -0.18; U32C C80U A83U C123G U130G: -1.77; U30C C97U: -3.64. For A29U C56G C85A the value was -4.99; for U33A G117U, -5.29; for U32G C62G G120U, -8.14. As for C31G G61C, the “polymerase ribozyme fitness (log ratio)” value is -7.02. As to A29C G57U G120U, the “polymerase ribozyme fitness (log ratio)” value was -2.96.

Take C34A C64G: the “polymerase ribozyme fitness (log ratio)” value is -6.42.

In the case of A29U G44A U59A A103C U112C, the “polymerase ribozyme fitness (log ratio)” value is -5.66. Next, U30C G42U G60A: -5.14. Take C34A G39U C56G: the “polymerase ribozyme fitness (log ratio)” value was -3.08. Next, A29C A41C G61U: -3.33. Next, U33A C56G G69U: -2.45; C28U G61C U106A G113C: -5.31; C34A U59A C115U A118U: -6.82. Next, C28U G77A U112G U125A: -3.35; A29U C72U C104U: -1.81; A29U A43U U78C U112A: -2.84. Turning to A29G G44U, the “polymerase ribozyme fitness (log ratio)” value was -2.04. Next, C34A G71U U92A C114G: -7.83; C34A C97G U125A: -3.42; A29G G71U G110A: -2.82. For the variant A29C C62A C124G U129C, the “polymerase ribozyme fitness (log ratio)” value is -3.09.

Turning to U32G A37G G113C, the “polymerase ribozyme fitness (log ratio)” value was -5.08. For U33A G44A G51A G63A A66G A74U A111U the value was -7.25; for C34G C72A U106G A119U, -7.42.

On to A29G C49G G71A U125G, for which the “polymerase ribozyme fitness (log ratio)” value was -3.8. For C28U G45A C70U G113A A118U U131C the value was -4.94; for U30A C56A C70U, -7.2; for U33C G39U A111C A121C, -5.95.

Consider U32C G52A U78C C101A, for which the “polymerase ribozyme fitness (log ratio)” value is -1.13. For C31A C98U the value was -7.02. As for C28U C124A U125A, the “polymerase ribozyme fitness (log ratio)” value was -0.0946. Next, U32C G69C G128C: -4.73; C34A G44A G48A G61U A121C C123G: -4.48. As for C28U U96G, the “polymerase ribozyme fitness (log ratio)” value is -2.43. Next, C34A U54A: -1.22; U33G G128A: -6.19. For C34A G69A the value was -5.23; for C28U G52A C70U, -3.7; for U32C C62U C73U C85U C98U, -4.16. Regarding C34A G57C, the “polymerase ribozyme fitness (log ratio)” value is -2.62. Next, A29U A83C C124A: -0.511; U32G A41G C70U C114U: -4.09; A29C C70U A118G: -2.26. Take A29G C70U G93U: the “polymerase ribozyme fitness (log ratio)” value was -3.

A29G C53G A95G: the “polymerase ribozyme fitness (log ratio)” value was -2.04. Next, U33G U87A: -6.14; C28U G48U U78A: -3.25.

With U32G A43G C73U A105U G120C, the “polymerase ribozyme fitness (log ratio)” value was -7.51. Next, C34A A37U A46U A74U G113C: -6.79. Next, A29U G69U U81C A100U C124A: 0.115; C28U G45C C76A C89G G120C: -5.73. In the case of A29U A83G C86U, the “polymerase ribozyme fitness (log ratio)” value is -2.72.

Regarding C28U G44C C79U C82U U126C G127U U129G, the “polymerase ribozyme fitness (log ratio)” value is -3.26. Consider C31G U33A C64A G120C, for which the “polymerase ribozyme fitness (log ratio)” value is -6.19.

For U33A U129A, the “polymerase ribozyme fitness (log ratio)” value is -6.13.

Take U33G U133G: the “polymerase ribozyme fitness (log ratio)” value was -6.24. For U32C U116C the value was -1.17. Take A29G U132C: the “polymerase ribozyme fitness (log ratio)” value is -0.924.

Take U32A G47U C72U A83U: the “polymerase ribozyme fitness (log ratio)” value is -5.74. For U32C G113A U126G U133C the value was -4.07; for A29U C40U G60C U131A, -2.41. Next, U32C U55G C102A: -2.56; C31A C72A C104G: -6.29; A29G A41U A46C G63C: -5.41.

On to U32A G44U U55A, for which the “polymerase ribozyme fitness (log ratio)” value is -5.23.

In the case of A29G G69U A95G, the “polymerase ribozyme fitness (log ratio)” value was -1.

As to C31U U59C G120U G127C, the “polymerase ribozyme fitness (log ratio)” value is -5.99. Consider C31G C56A G60U U109A, for which the “polymerase ribozyme fitness (log ratio)” value is -7.12. For A29U G47U C62U the value was -4.34; for C31A A95U, -5.15. For A29U G127A the value was -4.12.

Consider C31G C85U C123U, for which the “polymerase ribozyme fitness (log ratio)” value is -5.56. As for A29U U112G U133C, the “polymerase ribozyme fitness (log ratio)” value is -1.1. With U33A G69U, the “polymerase ribozyme fitness (log ratio)” value was -0.74. Take U33G G47C G61C C80A U112A U116C A119U: the “polymerase ribozyme fitness (log ratio)” value is -6.76.

In the case of U30G C49G G113C, the “polymerase ribozyme fitness (log ratio)” value is -5.95. For C31G C80A A105G G113A the value was -4.57; for A29U A46G U125A, -2.44; for A29C A84G U87A C104U C124G, -1.28. For C28U G60A the value was -2.05. For C28U G60U the value was -1.24.

Turning to A29G G120U U132A, the “polymerase ribozyme fitness (log ratio)” value is -1.63. Turning to A29U C40U C49A A68G U106A, the “polymerase ribozyme fitness (log ratio)” value was -4.25. For C34A C40U C85G, the “polymerase ribozyme fitness (log ratio)” value was -4.94. For U33A G127C the value was -4.76. For C31G G48U G65A C86G A100C G120C the value was -6.59; for C28U G57U, -1.3; for C28U U78C C101U, -2.49. Next, A29U C56G A66U: -3; A29C C56A G71C U87A C98A C101U G110C: -6.81; U33G U55A C72G: -6.25. As to C28U G113C, the “polymerase ribozyme fitness (log ratio)” value was -3.57. Consider C28U G113A, for which the “polymerase ribozyme fitness (log ratio)” value was -2.

Regarding U32C C73U C85U C98U, the “polymerase ribozyme fitness (log ratio)” value was -4.19.

Turning to C34G C64U, the “polymerase ribozyme fitness (log ratio)” value is -6.18. For C31U C40U the value was -4.75; for U32C G60U A66G C89G, -6.79. For U32C A84U the value was -0.174; for C31A, -5.84; for C31U, -4.29. For C31G the value was -7.22; for A29G G60C U131A, -1.85; for C34A U116C, -5.3. In the case of C31G C53A G60A C94U U106A, the “polymerase ribozyme fitness (log ratio)” value is -5.77. For A29U G48A U92C C101U C114A the value was -5.72.

Regarding A29U A75U A83G U112G U133C, the “polymerase ribozyme fitness (log ratio)” value was -2.19. Next, C31A C115U: -7.47. Next, U32C C49A: -0.089; U30C G63A: -2.6; A29G A74U U109A C114U: -4.26. For A29U A46G C88U C97G the value was -4.71; for C34A G52A U96C C124A, -1.41; for A29G G71A G120U U132A, -2.06.

Regarding C34A C101U, the “polymerase ribozyme fitness (log ratio)” value is -2.53.

For C34A U87A A105G, the “polymerase ribozyme fitness (log ratio)” value was -6.02. As to C34A G93A C101U, the “polymerase ribozyme fitness (log ratio)” value is -3.81. Next, U30C C88U: -2.37. For U33G G60U C85G the value was -7.61; for U32A C56G G77U C99A C123U U125G, -5.41; for U32G U33C A43U A91U C124U, -5.75. For the variant U33A G48U U55C U109C A121G C124A G127C, the “polymerase ribozyme fitness (log ratio)” value is -5.45. Next, A29U C115A: -1.59; C34G A108G: -6.09. Consider A29U U59G G120C, for which the “polymerase ribozyme fitness (log ratio)” value is -1.14. Next, U33A G63A: -6.46; A29U G58A C115U: -2.3.

Turning to A29U A66C, the “polymerase ribozyme fitness (log ratio)” value is -2.83. For U33C U131A the value was -4.45. For A29U G61A C82G U116C U125A the value was -3.67. Next, C34A G58C: -2.18; A29G A37G U54G G69C: -7.29; U32C U81G: -3.83. For the variant C28U G44U U59A C89G, the “polymerase ribozyme fitness (log ratio)” value is -4.37.

In the case of A29U A43G U54C G63A G117C, the “polymerase ribozyme fitness (log ratio)” value is -7.13. Consider A29U C49G C101G C124G, for which the “polymerase ribozyme fitness (log ratio)” value is -3.93. Next, C31G G120A: -5.69. Next, C31G G120C: -5.91; A29G G69C G77C: -4.34. For C34A A75G the value was -2.34. Take C31U C70U C72U: the “polymerase ribozyme fitness (log ratio)” value was -5.69.

These data come from the RNAGym collection of RNA variant scans (doi:10.1073/pnas.2313332121).
